Assay results published in the supplement of paper PMC12855868.

B1: library; numbered along this chain (parent)
chain: MAAAGGARLLRAASAVLGGPAGRWLHHAGSRAGSSGLLRNRGPGGSAEASRSLSVSARARSSSEDKITVHFINRDGETLTTKGKVGDSLLDVVVENNLDIDGFGACEGTLACSTCHLIFEDHIYEKLDAITDEENDMLDLAYGLTDRSRLGCQICLTKSMDNMTVRVPETVADARQSIDVGKTS

Variants of: B1
Test: scaled log2 fold change in cell abundance, elesclomol vs control (0 = silent mean, 1 = nonsense mean) (scaled log2 ratio); higher = higher viability under elesclomol (loss of FDX1 cuproptosis function)
Conditions: glucose 10 mM
[1] = with ABC1 FDX1 KO, elesclomol 5 nM, 14 days
[2] = with HEK293T FDX1 KO, elesclomol 40 nM, 11 days
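Also: variant abundance is its share of total variant reads in each endpoint sample, from next-generation sequencing of the integrated ORF PCR-amplified out of genomic DNA.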

R166Q
scaled log2 fold change [1]: -0.338
scaled log2 fold change [2]: -0.083

R166L
scaled log2 fold change [1]: -0.509
scaled log2 fold change [2]: 0.328

R166Y
scaled log2 fold change [1]: 0.394
scaled log2 fold change [2]: 1.92

R166P
scaled log2 fold change [1]: 1.06
scaled log2 fold change [2]: 1.77

R166W
scaled log2 fold change [1]: -0.00581
scaled log2 fold change [2]: 0.748

R166H
scaled log2 fold change [1]: -0.236

R166T
scaled log2 fold change [1]: 0.529
scaled log2 fold change [2]: -0.473

R166C
scaled log2 fold change [1]: -0.501
scaled log2 fold change [2]: -0.211

R166D
scaled log2 fold change [1]: 0.375
scaled log2 fold change [2]: -0.407

R166A
scaled log2 fold change [1]: 0.373
scaled log2 fold change [2]: 0.284

R166F
scaled log2 fold change [1]: -0.233
scaled log2 fold change [2]: 0.799

R166N
scaled log2 fold change [1]: -0.198
scaled log2 fold change [2]: 0.918

R166S
scaled log2 fold change [1]: 0.275
scaled log2 fold change [2]: -0.368

R166G
scaled log2 fold change [1]: 0.266
scaled log2 fold change [2]: -0.344

R166I
scaled log2 fold change [1]: -0.0924
scaled log2 fold change [2]: -0.203

R166M
scaled log2 fold change [1]: 0.144
scaled log2 fold change [2]: -0.000209

R166E
scaled log2 fold change [1]: -0.677
scaled log2 fold change [2]: -0.967

R166K
scaled log2 fold change [1]: -0.502
scaled log2 fold change [2]: -0.393

R166V
scaled log2 fold change [1]: -0.116
scaled log2 fold change [2]: 0.509

T164A
scaled log2 fold change [1]: 0.408
scaled log2 fold change [2]: 0.0905

T164M
scaled log2 fold change [1]: -0.076
scaled log2 fold change [2]: -0.072

T164C
scaled log2 fold change [1]: 0.25
scaled log2 fold change [2]: 0.194

T164K
scaled log2 fold change [1]: -0.0707
scaled log2 fold change [2]: 0.0715

T164L
scaled log2 fold change [1]: -0.159
scaled log2 fold change [2]: -0.224

T164Q
scaled log2 fold change [1]: -0.171

T164P
scaled log2 fold change [1]: 0.508
scaled log2 fold change [2]: -0.0295

T164S
scaled log2 fold change [1]: -0.253
scaled log2 fold change [2]: 0.99

T164I
scaled log2 fold change [1]: -0.259
scaled log2 fold change [2]: -0.338

T164D
scaled log2 fold change [1]: 0.108
scaled log2 fold change [2]: 0.818

T164E
scaled log2 fold change [1]: -0.00918
scaled log2 fold change [2]: 0.119

T164F
scaled log2 fold change [1]: 0.0235
scaled log2 fold change [2]: -0.4

T164N
scaled log2 fold change [1]: 0.361
scaled log2 fold change [2]: 1.04

T164G
scaled log2 fold change [1]: 0.367
scaled log2 fold change [2]: -0.293

T164H
scaled log2 fold change [1]: 0.213
scaled log2 fold change [2]: -0.0955

T164W
scaled log2 fold change [1]: -0.403
scaled log2 fold change [2]: -0.13

T164V
scaled log2 fold change [1]: 0.342
scaled log2 fold change [2]: 1.31

T164R
scaled log2 fold change [1]: -0.0678
scaled log2 fold change [2]: -0.0374

T164Y
scaled log2 fold change [1]: -1.38
scaled log2 fold change [2]: 0.173

V167T
scaled log2 fold change [1]: 0.214
scaled log2 fold change [2]: 0.998

V167N
scaled log2 fold change [1]: 0.111
scaled log2 fold change [2]: -0.228

V167S
scaled log2 fold change [1]: 0.152
scaled log2 fold change [2]: 0.0174

V167E
scaled log2 fold change [1]: 0.136
scaled log2 fold change [2]: 0.156

V167P
scaled log2 fold change [1]: 0.251
scaled log2 fold change [2]: -0.184

V167F
scaled log2 fold change [1]: 0.518

V167A
scaled log2 fold change [1]: -0.622
scaled log2 fold change [2]: 0.856

V167M
scaled log2 fold change [1]: 0.222
scaled log2 fold change [2]: -0.0856

V167H
scaled log2 fold change [1]: 0.217
scaled log2 fold change [2]: 1.13

V167L
scaled log2 fold change [1]: -0.207
scaled log2 fold change [2]: -0.904

V167Q
scaled log2 fold change [1]: 0.218
scaled log2 fold change [2]: 1.05

V167R
scaled log2 fold change [1]: 0.264
scaled log2 fold change [2]: -0.286

V167I
scaled log2 fold change [1]: -0.468
scaled log2 fold change [2]: 0.138

V167G
scaled log2 fold change [1]: 0.269
scaled log2 fold change [2]: 0.997

V167W
scaled log2 fold change [1]: 0.155
scaled log2 fold change [2]: -0.0986

V167K
scaled log2 fold change [1]: 0.318
scaled log2 fold change [2]: 0.00856

V167C
scaled log2 fold change [1]: -0.124
scaled log2 fold change [2]: 0.517

V167Y
scaled log2 fold change [1]: -0.0283
scaled log2 fold change [2]: 0.556

V167D
scaled log2 fold change [1]: 0.489
scaled log2 fold change [2]: 0.995

V165G
scaled log2 fold change [1]: 0.475
scaled log2 fold change [2]: 0.411

V165M
scaled log2 fold change [1]: -0.123
scaled log2 fold change [2]: -0.424

V165W
scaled log2 fold change [1]: 0.852
scaled log2 fold change [2]: 0.405

V165S
scaled log2 fold change [1]: 0.00333
scaled log2 fold change [2]: 0.568

V165H
scaled log2 fold change [1]: 1.12
scaled log2 fold change [2]: 0.873

V165K
scaled log2 fold change [1]: 1.08
scaled log2 fold change [2]: 1.01

V165D
scaled log2 fold change [1]: 1.12
scaled log2 fold change [2]: 0.895

V165P
scaled log2 fold change [1]: 0.71
scaled log2 fold change [2]: 0.4

V165I
scaled log2 fold change [1]: -0.183
scaled log2 fold change [2]: -0.249

V165A
scaled log2 fold change [1]: -0.0573
scaled log2 fold change [2]: -0.318

V165E
scaled log2 fold change [1]: 1.06
scaled log2 fold change [2]: 1.35

V165L
scaled log2 fold change [1]: -0.0209
scaled log2 fold change [2]: -0.834

V165T
scaled log2 fold change [1]: 0.13
scaled log2 fold change [2]: -0.566

V165C
scaled log2 fold change [1]: 0.0302
scaled log2 fold change [2]: 0.944

V165Y
scaled log2 fold change [1]: 1.03
scaled log2 fold change [2]: 1.38

V165N
scaled log2 fold change [1]: 0.812
scaled log2 fold change [2]: 1.02

V165F
scaled log2 fold change [1]: 0.53
scaled log2 fold change [2]: 0.286

V165R
scaled log2 fold change [1]: 1.09
scaled log2 fold change [2]: 1.45

V165Q
scaled log2 fold change [1]: 1.06
scaled log2 fold change [2]: 1.21

P168V
scaled log2 fold change [1]: 0.143
scaled log2 fold change [2]: -0.0343

P168Q
scaled log2 fold change [1]: 0.259
scaled log2 fold change [2]: 0.667

P168K
scaled log2 fold change [1]: 0.508
scaled log2 fold change [2]: -0.335

P168H
scaled log2 fold change [1]: 0.377
scaled log2 fold change [2]: 0.136

P168C
scaled log2 fold change [1]: 0.163
scaled log2 fold change [2]: 0.254

P168D
scaled log2 fold change [1]: 0.403
scaled log2 fold change [2]: 1.03

P168M
scaled log2 fold change [1]: 0.157
scaled log2 fold change [2]: -0.366

P168T
scaled log2 fold change [1]: 0.449
scaled log2 fold change [2]: -0.142

P168R
scaled log2 fold change [1]: 0.453
scaled log2 fold change [2]: 0.117

P168A
scaled log2 fold change [1]: 0.158
scaled log2 fold change [2]: -0.0417

P168Y
scaled log2 fold change [1]: 0.394
scaled log2 fold change [2]: -0.173

P168N
scaled log2 fold change [1]: 0.157
scaled log2 fold change [2]: -0.31

P168F
scaled log2 fold change [1]: 0.153
scaled log2 fold change [2]: 0.798

P168I
scaled log2 fold change [1]: -0.0742
scaled log2 fold change [2]: 0.61

P168S
scaled log2 fold change [1]: 0.106
scaled log2 fold change [2]: 0.443

P168E
scaled log2 fold change [1]: 0.408
scaled log2 fold change [2]: -0.105

P168W
scaled log2 fold change [1]: 0.463
scaled log2 fold change [2]: 0.286

P168L
scaled log2 fold change [1]: 0.485
scaled log2 fold change [2]: 0.478

E169F
scaled log2 fold change [1]: -0.455
scaled log2 fold change [2]: 0.0831

E169D
scaled log2 fold change [1]: -0.464
scaled log2 fold change [2]: 1.13

E169G
scaled log2 fold change [1]: -1.32
scaled log2 fold change [2]: 0.409

E169I
scaled log2 fold change [1]: -0.202
scaled log2 fold change [2]: -0.174

E169H
scaled log2 fold change [1]: 0.197
scaled log2 fold change [2]: 0.526

E169C
scaled log2 fold change [1]: -0.223
scaled log2 fold change [2]: -0.0591

E169K
scaled log2 fold change [1]: -0.0829
scaled log2 fold change [2]: 1.04

E169A
scaled log2 fold change [1]: 0.277
scaled log2 fold change [2]: -0.0328

M163T
scaled log2 fold change [1]: -0.131
scaled log2 fold change [2]: 0.00152

M163K
scaled log2 fold change [1]: 0.823
scaled log2 fold change [2]: 0.16

M163I
scaled log2 fold change [1]: 0.122
scaled log2 fold change [2]: 0.861

M163L
scaled log2 fold change [1]: 0.385
scaled log2 fold change [2]: 0.864

M163F
scaled log2 fold change [1]: 0.518
scaled log2 fold change [2]: -0.42

M163Y
scaled log2 fold change [1]: 0.547
scaled log2 fold change [2]: -0.538

M163R
scaled log2 fold change [1]: 0.657
scaled log2 fold change [2]: -0.245

M163S
scaled log2 fold change [1]: -0.173
scaled log2 fold change [2]: 0.99

M163P
scaled log2 fold change [1]: 0.859
scaled log2 fold change [2]: 0.441

M163Q
scaled log2 fold change [1]: 0.357
scaled log2 fold change [2]: -0.237

M163G
scaled log2 fold change [1]: 0.325
scaled log2 fold change [2]: -0.225

M163N
scaled log2 fold change [1]: 0.51
scaled log2 fold change [2]: 0.528

M163W
scaled log2 fold change [1]: 0.598
scaled log2 fold change [2]: 0.247

M163V
scaled log2 fold change [1]: -0.168
scaled log2 fold change [2]: 0.941

M163H
scaled log2 fold change [1]: 0.707
scaled log2 fold change [2]: 0.257
